# In patent US20240148892A1:
# B1: reference ADC-1 (Daiichi Sankyo, DS7300) (protein, INN chains, looked up)
# VH: QVQLVQSGAEVKKPGSSVKVSCKASGYTFTNYVMHWVRQAPGQGLEWMGYINPYNDDVKYNEKFKGRVTITADESTSTAYMELSSLRSEDTAVYYCARWGYYGSPLYYFDYWGQGTLVTVSS
# VL: EIVLTQSPATLSLSPGERATLSCRASSRLIYMHWYQQKPGQAPRPLIYATSNLASGIPARFSGSGSGTDFTLTISSLEPEDFAVYYCQQWNSNPPTFGQGTKVEIK
# modifications: deruxtecan payload
# Target: human full-length B7H3 expressed on MCF-7 cells (human) (UniProt Q5ZPR3)
# Assay: cell-based or functional assay
# Sequence of human full-length B7H3 expressed on MCF-7 cells (human) (Q5ZPR3 29-534 limits assumed): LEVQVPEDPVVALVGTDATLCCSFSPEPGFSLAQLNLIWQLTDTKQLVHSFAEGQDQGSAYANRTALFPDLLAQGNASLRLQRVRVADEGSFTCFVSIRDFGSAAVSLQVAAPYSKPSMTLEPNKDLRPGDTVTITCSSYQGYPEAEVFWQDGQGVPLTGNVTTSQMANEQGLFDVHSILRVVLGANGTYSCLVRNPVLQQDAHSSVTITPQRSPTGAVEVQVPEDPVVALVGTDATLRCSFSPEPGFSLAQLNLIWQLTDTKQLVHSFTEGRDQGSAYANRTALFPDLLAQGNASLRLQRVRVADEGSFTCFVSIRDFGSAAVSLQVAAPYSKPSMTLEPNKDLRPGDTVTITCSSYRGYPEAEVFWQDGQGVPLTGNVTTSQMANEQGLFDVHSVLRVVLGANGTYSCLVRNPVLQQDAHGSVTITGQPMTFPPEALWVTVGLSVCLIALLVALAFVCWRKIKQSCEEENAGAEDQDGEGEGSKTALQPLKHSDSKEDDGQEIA
binder,measurement,value
B1,"IC50 of inhibition of proliferation, A375 melanoma cells (CellTiter-Glo)",315 nM
same,"IC50 of inhibition of proliferation, A549 lung cancer cells (CellTiter-Glo)",378 nM
same,"IC50 of inhibition of proliferation, Calu-6 lung cancer cells (CellTiter-Glo)",428 nM
same,"IC50 of inhibition of proliferation, HT-29 colorectal cancer cells (CellTiter-Glo)",1140 nM
same,"IC50 of inhibition of proliferation, MCF-7 breast cancer cells (CellTiter-Glo)",435 nM
same,"IC50 of inhibition of proliferation, NCI-H358 lung cancer cells (CellTiter-Glo)",123 nM
same,"IC50 of inhibition of proliferation, NCI-H1568 lung cancer cells (CellTiter-Glo)",32.8 nM
same,"IC50 of inhibition of proliferation, PC-3 prostate cancer cells (CellTiter-Glo)",959 nM
same,"IC50 of inhibition of proliferation, U87 MG brain cancer cells (CellTiter-Glo)",354 nM
